From US12552837B2, “Bicyclic peptide ligands with detectable moieties and uses thereof” (BicycleRD Limited, priority 2017, dated 2026) come the findings set out here.

Like-named read-outs stand apart in the source and are kept apart here. *1 amine or outer side, *2 acyl side, *3 side chain or, on linkers, in order; H or OH if unused. Where a SMILES comes first, the peptide text is derived from it. Bridges are numbered along the chain shown (N, C = ends). [ ]: non-standard residue; d: D form. The star is where a group is joined. DOTA = O=C(O)CN1CCN(CC(=O)O)CCN(CC(=O)*)CCN(CC(=O)O)CC1; 1Nal = N[C@@H](Cc1cccc2ccccc12)C(=O)O; TBMB = c1c(C[*:1])cc(C[*:3])cc1C[*:2]; Palmitoyl = CCCCCCCCCCCCCCCC(=O)*; Tle = CC(C)(C)[C@H](N)C(=O)O; βAla = NCCC(=O)O; Sar = CNCC(=O)O Where only a bound is given, the exact number is not on record here.

The test system of data set [1] is HT1080 tumor. Briefly: Organ distribution of 177Lu-labelled peptides in HT1080 xenograft mice. In kind it is in vivo, BALB/c nu/nu mice. How it is done:
(§1) General procedure for radiolabelling with Lu-177.
(§2) • 50 μL 0.25 M Na-Acetate buffer pH 5.2+0.1% Tween 20; • 10 μL [Lu-177]LuCl3 in 0.05 M HCl; and • 2 μL of the diluted peptide (2 nmols). […]
(§3) Organ distribution studies, general method: For organ distribution, the respective dose is prepared by dilution of the labeling reaction mixture in injection buffer (0.25 M Na-Acetate pH 7+0.05% Tween20). The ^177Lu-radiolabeled peptide was injected via the tail vein of the nu/nu mice (50 kBq per mouse), transplanted with the respective cell line. At indicated time points after injection the animals were sacrificed. Blood, heart, lung, spleen, liver, kidney, muscle, brain, femur, and the tumor were dissected, blotted dry, and weighed. The radioactivity was measured with a γ-counter (CobraII; Canberra Packard) along with a sample of the injection solution to calculate the percentage injected dose per gram of tissue (% ID/g).
(§4) The γ- and β-emitter ^177LuCl3 (NEZ307D, Perkin Elmer, in 0.04 M HCl), with a t1/2 of 6.7 days was used for both in vivo biodistribution and internalization studies. Labeling reactions were performed by adding 10 μL ^177LuCl3 (˜10 MBq) in 50 mM HCl, 2 μL of the diluted peptide (1 mM solution in 50 mM HEPES buffer pH 7+0.1% Tween 20 diluted from a 10 mM DMSO stock) to 50 μL 50 mM HEPES buffer pH 7 supplemented with 0.1% Tween 20. The reaction mixture was incubated at 98° C. for 10 minutes. The radiochemical yield (RCY) was determined using high performance liquid chromatography (HPLC) system equipped with a Latek P402 (Latek, Eppelheim, Germany), a HITACHI variable UV detector (absorbance was measured at 214 and 254 nm) and a gamma detector (Bioscan, WA, USA), using a Chromolith RP-18 column (100×4.6 mm; Merck). The analytical HPLC run was performed at 4 mL/min, using a linear A (0.1% trifluoroacetic acid (TFA) in water) to B (0.1% TFA in acetonitrile) gradient (0% B to 100% B in 6 min). Thin-layer chromatography was performed in parallel to confirm the results of the radio-HPLC. The RCY was generally >95%, and thus, the output of labelling reactions was directly diluted with the appropriate buffer and further unlabeled peptide if required, to use in subsequent experiments.
(§5) 5×10^6 cells of HT1080 were subcutaneously inoculated into the right trunk of male 6-week-old BALB/c nu/nu mice (Charles River Laboratories). The tumors were grown for approximately 1 week, to a maximum size of ˜200 mm^3. Respective doses were prepared by mixing a fixed quantity of 5 pmoles ^177Lu labelled peptides (at approx. 50 kBq) with different quantities of non-labelled peptide (derived from 1 mM stock solution in 0.25 M sodium acetate pH 7+0.05% Tween20) in 100 μL injection buffer (0.25 M sodium acetate pH 7+0.05% Tween20). 3 animals were used per dose and timepoint. Radiolabelled peptide solutions were injected via the tail vein, followed by sacrifice at various time points. Organs of interest (blood, heart, lung, spleen, liver, kidney, muscle, small intestine, brain, HT1080 tumor) were dissected, blotted dry, and weighed. The radioactivity was measured using a gamma counter and calculated as % ID/g.

Assay in data set [2]: as above
It counts as in vivo, BALB/c nu/nu mice. Particulars: male, BALB/c nu/nu, iv, total radioactivity. The protocol: as §1, §2, §3, §4, §5

Data set [3] addresses MT1-MMP hemopexin domain (Homo sapiens, UniProt P50281). Briefly: Fluorescence polarization direct binding / competition assay to MT1-MMP hemopexin domain. The protocol:
Direct Binding Fluorescence Polarization or Anisotropy Assays are performed by titrating a constant concentration of fluorescent tracer (here, the fluoresceinated bicyclic peptide to be studied) with its binding partner (here, the MT1-MMP hemopexin domain). As the concentration of binding partner increases during the titration, the polarization signal changes in proportion to the fraction of bound and unbound material. This allows determination of […] (Kd) quantitatively. Assay data can be fit using standard ligand binding equations.
Typically, concentrations of the tracer are ideally well below the Kd of the tracer: titrant pair, and concentrations chosen are usually at ˜1 nM or less. The titrant (binding partner) concentration is varied from 0.1 nM up to typically 5 μM. The range is chosen such that the maximum change in fluorescent polarization can be observed. Buffers employed are phosphate buffered saline in the presence of 0.01% Tween. Experiments were run in black 384 well low-bind/low volume plates (Corning 3820), and the fluorescent polarization signal was measured using a BMG Pherastar FS plate reader. Fluorescent tracers referred to in the text are bicyclic peptides that have been fluoresceinated using 5,6-carboxyfluorescein. Fluoresceination may be performed on the N-terminal amino group of the peptide, which is separated from the bicycle core sequence by a sarcosine spacer (usually Sar10 (SEQ ID NO: 73)). This can be done during Fmoc solid phase synthesis or post-synthetically (after cyclization with the molecular scaffold reagent and purification) if the N-terminal amino group is unique to the peptide. Fluoresceination can also be performed on the C-terminus, usually on a Lysine introduced as the first C-terminal residue, which is then separated from the bicycle core sequence by a sarcosine spacer (usually Sar6 (SEQ ID NO: 69)). Thus, N-terminal tracers can have a molecular format described as Fluo-Ala-Sar10-A (SEQ ID NO: 72) (BicycleCoreSequence), and (BicycleCoreSequence)-A-Sar6-K (Fluo) (SEQ ID NO: 67) for a C-terminally fluoresceinated construct.
Fluorescent tracers used in the Examples are A-(17-69)-A-Sar6-K (Fluo) (SEQ ID NO: 67), A-(17-69-07)-A-Sar6-K (Fluo) (SEQ ID NO: 67), and A-(17-69-12)-A-Sar6-K (Fluo) (SEQ ID NO: 67). Due to the acidic nature of the 17-69 fluorescent peptides, they were typically prepared as concentrated DMSO stocks, from which dilution were prepared in 100 mM Tris pH 8 buffer.
Due to their high affinities to the MT1-MMP Hemopexin domain (PEX), the fluoresceinated derivatives of 17-69-07 and 17-69-12 (denoted as 17-69-07-N040 and 17-69-12-N005, respectively) can be used for competition experiments (using FP for detection). […] Dissociation of the complex can be measured quantitatively, and the Kd of the competitor (titrant) to the target protein determined. The advantage of the competition method is that the affinities of non-fluoresceinated bicyclic peptides can be determined accurately and rapidly.
Subsequently, the non-fluorescent competitor bicyclic peptide (usually just the bicycle core sequence) is titrated, such that it displaces the fluorescent tracer from the target protein. The displacement of the tracer is measured and associated with a drop in fluorescence polarization. The drop in fluorescence polarization is proportional to the fraction of target protein bound with the non-fluorescent titrant, and thus is a measure of the affinity of titrant to target protein. […]
Background: Fluorescence polarisation rises when a labelled molecule tumbles more slowly, as on binding a larger partner.

As usually defined, the Kd is the constant that tells how readily two partners part at equilibrium. Low readings indicate higher affinity, high ones lower affinity. For `CCCCCCCCCCCCCCCC(=O)NCCC(=O)N(C)CC(=O)N(C)CC(=O)N(C)CC(=O)N(C)CC(=O)N(C)CC(=O)N[C@@H](CCCCNC(=O)CN1CCN(CC(=O)O)CCN(CC(=O)O)CCN(CC(=O)O)CC1)C(=O)N(C)CC(=O)N(C)CC(=O)N(C)CC(=O)N(C)CC(=O)N(C)CC(=O)N(C)CC(=O)N(C)CC(=O)N(C)CC(=O)N(C)CC(=O)N(C)CC(=O)N[C@@H](C)C(=O)N[C@H]1CSCc2cc3cc(c2)CSC[C@H](NC(=O)[C@@H](C)NC(=O)[C@H](Cc2cccc4ccccc24)NC(=O)[C@H](CCC(=O)O)NC(=O)[C@H](CC(N)=O)NC(=O)[C@@H](C)NC1=O)C(=O)N[C@@H](CCC(=O)O)C(=O)N[C@@H](CC(=O)O)C(=O)N[C@@H](Cc1ccccc1)C(=O)N[C@@H](Cc1ccc(O)cc1)C(=O)N[C@@H](CC(=O)O)C(=O)N[C@@H](C(C)(C)C)C(=O)N[C@H](C(N)=O)CSC3` [I-25] ({Palmitoyl-βAla}-[Sar][Sar][Sar][Sar][Sar]K(DOTA)[Sar][Sar][Sar][Sar][Sar][Sar][Sar][Sar][Sar][Sar]AC[dA]NE[1Nal][dA]CEDFYD[Tle]C-NH2; linker 18-24-31 via TBMB), the “signals in spleen, liver and small intestine” value in data set [1] (177Lu-labelled, 48 hr p.i.) is below 4.5%. Further, the tissue to tissue ratio at 6 h in data set [2] (HT1080 tumor / blood, 750 pmole/mouse, 6 hrs, read-out: tumour to blood signal ratio) turned out to be 19. Also, the tissue to tissue ratio at 48 h in data set [2] (HT1080 tumor / blood, 750 pmole/mouse, 48 hrs, read-out: tumour to blood signal ratio) is 97. Further, the tissue uptake at 2 h in data set [2] (HT1080 tumor, 750 pmole/mouse, 2 h p.i., read-out: tumour accumulation) stood at 25 ± 1.61 %ID/g. In addition, in data set [2] (HT1080 tumor, 750 pmole/mouse, 6 h p.i., read-out: tumor uptake (maximum)), the tissue uptake at 6 h worked out at 35.9 ± 1.11 %ID/g. For the same molecule, the tissue uptake at 48 h is around 26 %ID/g in data set [2] (HT1080 tumor, 177Lu-labelled, 48 hr p.i., 750-1000 pmole/mouse, read-out: tumour signal) and 24.1 ± 2.5 %ID/g in data set [2] (mouse, HT1080 tumor, 750 pmoles injected dose, 48 h p.i., read-out: tumor accumulation in HT1080 xenografts). In addition, the equilibrium dissociation constant (Kd) in data set [3] is 2.25 ± 0.5 nM.

For the molecule `C[C@H](NC(=O)CN(C)C(=O)CN(C)C(=O)CN(C)C(=O)CN(C)C(=O)CN(C)C(=O)CN(C)C(=O)CN(C)C(=O)CN(C)C(=O)CN(C)C(=O)CN(C)C(=O)CCNC(=O)CN1CCN(CC(=O)O)CCN(CC(=O)O)CCN(CC(=O)O)CC1)C(=O)N[C@H]1CSCc2cc3cc(c2)CSC[C@H](NC(=O)[C@@H](C)NC(=O)[C@H](Cc2cccc4ccccc24)NC(=O)[C@H](CCC(=O)O)NC(=O)[C@H](CC(N)=O)NC(=O)[C@@H](C)NC1=O)C(=O)N[C@@H](CCC(=O)O)C(=O)N[C@@H](CC(=O)O)C(=O)N[C@@H](Cc1ccccc1)C(=O)N[C@@H](Cc1ccc(O)cc1)C(=O)N[C@@H](CC(=O)O)C(=O)N[C@@H](C(C)(C)C)C(=O)N[C@H](C(N)=O)CSC3` [I-24] ({DOTA-βAla}-[Sar][Sar][Sar][Sar][Sar][Sar][Sar][Sar][Sar][Sar]AC[dA]NE[1Nal][dA]CEDFYD[Tle]C-NH2; linker 12-18-25 via TBMB), in data set [1] (1 h post injection), the “blocking of tumor uptake at a dose of 500 pmoles” value was “slightly blocked”, the “blocking of tumor uptake using 5 nmoles” value is on record as “nearly completely blocked”, the “signal in the tumor compared to I-23” value was “slightly lower” and the “tumor uptake compared to 17-69-07-N144” value is reported as “significantly greater”. In addition, in data set [2] (mouse, HT1080 tumor, 1 h p.i. of 150 pmoles), the tissue uptake at 1 h is 7.04 ± 2.83 %ID/g. This molecule also registered a Kd in data set [3] of 1.37 ± 0.53 nM.
